Data set [1] has as its system hTERT-HMEC. Briefly: percentage of EdU-negative (G0-arrested) nuclei per well, 72 h; higher = more G0 arrest. The conditions noted are these: reference: sequence is the full UniProt precursor, the tested protein was the secreted form or ectodomain.
Data set [2] has as its system MCF7. The data set is described as above. The conditions noted are these: reference: sequence is the full UniProt precursor, the tested protein was the secreted form or ectodomain.
Setting [3] is: protein concentration 0.0225 µM.
The mark [4] stands for this setting: protein concentration 0.018565 µM.
Where [5] appears, read: protein concentration 0.18565 µM.

± gives the standard deviation of the averaged measurements.
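Also: secreted proteins added to cultured cells, EdU pulse at the end, nuclei found by Hoechst imaging, EdU status from nuclear versus surrounding ring intensity ratio, PBS as neutral control.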

For “MRARPRPRPLWATVLALGALAGVGVGGPNICTTRGVSSCQQCLAVSPMCAWCSDEALPLGSPRCDLKENLLKDNCAPESIEFPVSEARVLEDRPLSDKGSGDSSQVTQVSPQRIALRLRPDDSKNFSIQVRQVEDYPVDIYYLMDLSYSMKDDLWSIQNLGTKLATQMRKLTSNLRIGFGAFVDKPVSPYMYISPPEALENPCYDMKTTCLPMFGYKHVLTLTDQVTRFNEEVKKQSVSRNRDAPEGGFDAIMQATVCDEKIGWRNDASHLLVFTTDAKTHIALDGRLAGIVQPNDGQCHVGSDNHYSASTTMDYPSLGLMTEKLSQKNINLIFAVTENVVNLYQNYSELIPGTTVGVLSMDSSNVLQLIVDAYGKIRSKVELEVRDLPEELSLSFNATCLNNEVIPGLKSCMGLKIGDTVSFSIEAKVRGCPQEKEKSFTIKPVGFKDSLIVQVTFDCDCACQAQAEPNSHRCNNGNGTFECGVCRCGPGWLGSQCECSEEDYRPSQQDECSPREGQPVCSQRGECLCGQCVCHSSDFGKITGKYCECDDFSCVRYKGEMCSGHGQCSCGDCLCDSDWTGYYCNCTTRTDTCMSSNGLLCSGRGKCECGSCVCIQPGSYGDTCEKCPTCPDACTFKKECVECKKFDRGALHDENTCNRYCRDEIESVKELKDTGKDAVNCTYKNEDDCVVRFQYYEDSSGKSILYVVEEPECPKGPDILVVLLSVMGAILLIGLAALLIWKLLITIHDRKEFAKFEEERARAKWDTANNPLYKEATSTFTNITYRGT”, the “percentage of EdU-negative” value in data set [1] (protein concentration 0.009 µM) came to 4.78 ± 0.31%; in data set [1] (protein concentration 0.09 µM), 16.9 ± 4.2%; in data set [2] (protein concentration 0.009 µM), 26.2 ± 0.6%; in data set [2] (protein concentration 0.09 µM) it was 27.7 ± 1.2%.

Take “MRRLLLVTSLVVVLLWEAGAVPAPKVPIKMQVKHWPSEQDPEKAWGARVVEPPEKDDQLVVLFPVQKPKLLTTEEKPRGQGRGPILPGTKAWMETEDTLGHVLSPEPDHDSLYHPPPEEDQGEERPRLWVMPNHQVLLGPEEDQDHIYHPQ [Q96NZ9]”: the “percentage of EdU-negative” value in data set [1] (protein concentration 0.013 µM) came to 4.69 ± 0.15%; in data set [1] (protein concentration 0.13 µM) it was 5.48 ± 0.53%; in data set [2] (protein concentration 0.013 µM) it was 23.14 ± 0.14%; in data set [2] (protein concentration 0.13 µM) it was 27.38 ± 0.25%.

As for “MIPLLLAALLCVPAGALTCYGDSGQPVDWFVVYKLPALRGSGEAAQRGLQYKYLDESSGGWRDGRALINSPEGAVGRSLQPLYRSNTSQLAFLLYNDQPPQPSKAQDSSMRGHTKGVLLLDHDGGFWLVHSVPNFPPPASSAAYSWPHSACTYGQTLLCVSFPFAQFSKMGKQLTYTYPWVYNYQLEGIFAQEFPDLENVVKGHHVSQEPWNSSITLTSQAGAVFQSFAKFSKFGDDLYSGWLAAALGTNLQVQFWHKTVGILPSNCSDIWQVLNVNQIAFPGPAGPSFNSTEDHSKWCVSPKGPWTCVGDMNRNQGEEQRGGGTLCAQLPALWKAFQPLVKNYQPCNGMARKPSRAYKI”, the “percentage of EdU-negative” value worked out at 5.36 ± 0.56% in data set [1] (setting [3]), 6.55 ± 0.55% in data set [1] (protein concentration 0.225 µM), 24.5 ± 0.64% in data set [2] (setting [3]) and 26.5 ± 3% in data set [2] (protein concentration 0.225 µM).

For “MDSYLLMWGLLTFIMVPGCQAELCDDDPPEIPHATFKAMAYKEGTMLNCECKRGFRRIKSGSLYMLCTGNSSHSSWDNQCQCTSSATRNTTKQVTPQPEEQKERKTTEMQSPMQPVDQASLPGHCREPPPWENEATERIYHFVVGQMVYYQCVQGYRALHRGPAESVCKMTHGKTRWTQPQLICTGEMETSQFPGEEKPQASPEGRPESETSCLVTTTDFQIQTEMAATMETSIFTTEYQVAVAGCVFLLISVLLLSGLTWQRRQRKSRRTI”, the “percentage of EdU-negative” value in data set [1] (setting [3]) was 4.53 ± 0.75%; in data set [1] (protein concentration 0.225 µM) it was 7.02 ± 0.61%; in data set [2] (setting [3]) it was 24.6 ± 0.99%; in data set [2] (protein concentration 0.225 µM), 25.4 ± 1.9%.

Consider “MSLSAFTLFLALIGGTSGQYYDYDFPLSIYGQSSPNCAPECNCPESYPSAMYCDELKLKSVPMVPPGIKYLYLRNNQIDHIDEKAFENVTDLQWLILDHNLLENSKIKGRVFSKLKQLKKLHINHNNLTESVGPLPKSLEDLQLTHNKITKLGSFEGLVNLTFIHLQHNRLKEDAVSAAFKGLKSLEYLDLSFNQIARLPSGLPVSLLTLYLDNNKISNIPDEYFKRFNALQYLRLSHNELADSGIPGNSFNVSSLVELDLSYNKLKNIPTVNENLENYYLEVNQLEKFDIKSFCKILGPLSYSKIKHLRLDGNRISETSLPPDMYECLRVANEVTLN”, for which the “percentage of EdU-negative” value in data set [1] (setting [4]) amounted to 5.59 ± 1.8%; in data set [1] (setting [5]), 6.27 ± 1.2%; in data set [2] (setting [4]) it was 25.7 ± 0.65%; in data set [2] (setting [5]) it was 25.1 ± 0.99%.

Consider “MRLSWFRVLTVLSICLSAVATATGAEGKRKLQIGVKKRVDHCPIKSRKGDVLHMHYTGKLEDGTEFDSSLPQNQPFVFSLGTGQVIKGWDQGLLGMCEGEKRKLVIPSELGYGERGAPPKIPGGATLVFEVELLKIERRTEL”, for which the “percentage of EdU-negative” value in data set [1] (setting [3]) amounted to 4.9 ± 1.4%; in data set [1] (protein concentration 0.225 µM), 6.25 ± 0.1%; in data set [2] (setting [3]) it was 25.5 ± 0.037%; in data set [2] (protein concentration 0.225 µM), 29.219 ± 0.017%.

These data come from the supplement of paper PMC11316812.
